Source: US20210052630A1, “Methods and Compositions for Preventing or Treating Heart Disease” (Macau University of Science and Technology, priority 2019, published 2021)

B1: CGCGGAGUAGAGCAGUUUGGUAGCUCGCAAGGCUCAUAACCUUGAGGUCACGGGUUCAAAUCCUGUCUCCGCAACCA (nucleic acid)
chain: CGCGGAGUAGAGCAGUUUGGUAGCUCGCAAGGCUCAUAACCUUGAGGUCACGGGUUCAAAUCCUGUCUCCGCAACCA
modifications: expressed or natural sequence
notes: tRNA isolated from Panax ginseng C; A. Mey; 77 mer
B2: GCGGAUAUAGUCGAAUGGUAAAAUUUCUCUUUGCCAAGGAGAAGACGCGGGUUCGAUUCCCGCUAUCCGCCCCA (nucleic acid)
chain: GCGGAUAUAGUCGAAUGGUAAAAUUUCUCUUUGCCAAGGAGAAGACGCGGGUUCGAUUCCCGCUAUCCGCCCCA
modifications: expressed or natural sequence
notes: tRNA isolated from Panax ginseng C; A. Mey; 74 mer
B3: GCGGAUGUAGCCAAGUGGAUCAAGGCAGUGGAUUGUGAAUCCACCAUGCGCGGGUUCAAUUCCCGUCGUUCGCCCCA (nucleic acid)
chain: GCGGAUGUAGCCAAGUGGAUCAAGGCAGUGGAUUGUGAAUCCACCAUGCGCGGGUUCAAUUCCCGUCGUUCGCCCCA
modifications: expressed or natural sequence
notes: as for B1

Experiments:
Assay type in all cases: cell-based, Rat
[1] = tested on: H9C2 cells; assay: Mitochondrial viability assay, H9C2 cells exposed to hypoxia/reoxygenation (H/R) injury; conditions: 300, 100, 30, 3 nM (FIG. 7A/7B)
Experimental: (§1) H9C2 cell lines were cultured in Dulbecco's Modified Eagle Medium (DMEM) containing 10% FBS and 1% penicillin/streptomycin at humidified atmosphere containing 5% CO2 at 37° C.
(§2) In the cell viability assay or mitochondrial viability assay, exponentially growing cells of H9C2 cell line were plated in 96-well microplate at a density of 5000 cells per well in 100 μL of culture medium and allowed to adhere for 24 h before treatment. […] Subsequently, for cell viability assay, 150 μL dimethyl sulfoxide (DMSO) were added and the optical densities of the resulting solutions were calorimetrically determined at 570 nm using a SpectraMax Paradigm multi-mode microplate reader (Molecular Devices, Sunnyvale, Calif., U.S.A). For mitochondrial viability assay, fluorescence detected at 550 nm excitation and 590 nm emission using SpectraMax Paradigm multi-mode microplate reader. Dose-response curves were obtained and calculated by GraphPad Prism 6 (GraphPad, La Jolla, Calif., USA). Each experiment was carried out for three times and expressed as means±standard deviation.

[2] = tested on: H9C2 cells; assay: MTT cell viability assay, H9C2 cells exposed to hypoxia/reoxygenation (H/R) injury; conditions: for cell viability (growth and proliferation of cardiomyocytes) under hypoxia/reoxygenation: 50 nM RNA, vs H/R group, FIG. 3B; for cardioprotective effect (cell viability), concentration series: 100, 50, 25, 12.5 nM, FIG. 4A/4B
Experimental: as §1
In the cell viability assay or mitochondrial viability assay, exponentially growing cells of H9C2 cell line were plated in 96-well microplate at a density of 5000 cells per well in 100 μL of culture medium and allowed to adhere for 24 h before treatment. For hypoxia, hypoxic treatment was achieved by exposing cells to KRB buffer (composition in: NaCl 115 mM, KCl 4.7 mM, CaCl2 2.5 mM, KH2PO4 1.2 mM, MgSO4 1.2 mM, NaHCO3 24 mM, HEPES 10 mM; pH 7.4) at 37° C. for 3 hr in an oxygen-free hypoxic chamber (Stem Cell Technologies, United States), serial concentrations of RNA molecules obtained in Example 1 were then added to the cells […]. For hypoxia/reoxygenation (H/R), Hypoxic treatment was achieved by exposing cells in glucose-free DMEM under conditions of 94.9% N2/5% CO2/0.1% O2 for 12 hr at a hypoxystation (whitley H35 hypoxystation, Don Whitley Scientific Ltd., England), serial concentrations of RNA molecules obtained in Example 1 and 2 were then added to the cells and reoxygenation by incubating in the normoxic condition (95% air/5% CO2) at 37° C. for 6 hr. After hypoxia or hypoxia/reoxygenation, MTT solution (100 μL per well, 0.5 mg/mL solution) or mitochondrial viability stain solution (follow the manufacture's instruction) was added to each well and incubated for 4 h at 37° C. Subsequently, for cell viability assay, 150 μL dimethyl sulfoxide (DMSO) were added and the optical densities of the resulting solutions were calorimetrically determined at 570 nm using a SpectraMax Paradigm multi-mode microplate reader (Molecular Devices, Sunnyvale, Calif., U.S.A). For mitochondrial viability assay, fluorescence detected at 550 nm excitation and 590 nm emission using SpectraMax Paradigm multi-mode microplate reader. Dose-response curves were obtained and calculated by GraphPad Prism 6 (GraphPad, La Jolla, Calif., USA). Each experiment was carried out for three times and expressed as means±standard deviation.

[3] = tested on: H9C2 cells; assay: MTT cell viability assay, H9C2 cells under H/R injury, RNA transfected with DharmaFECT4; conditions: 300, 100, 30 nM, vs H/R+DharmaFECT4 group, FIG. 11A/11B
Experimental: FIG. 11A is a bar chart showing the cell viability of H9C2 cells exposed to hypoxia/reoxygenation (H/R) injury after treatment with RNA molecule HC50 at different concentrations, i.e. 300 nM, 100 nM and 30 nM, by transfected with DharmaFECT4 transfection reagent, compared to a control group, a H/R along with DharmaFECT4 treated group in accordance with an example embodiment (mean±SD n=3; **, p<0.01, vs. vehicle H/R+ DharmaFECT4; ####, p<0.0001 vs. vehicle control). […]
as §2

[4] = tested on: H9C2 cell cytoskeleton; assay: Cytoskeleton imaging (Rhodamine Phalloidin/DAPI, confocal) of H9C2 cells after H/R injury; conditions: 900, 300, 100, 30, 10, 3, 0.3 nM, FIG. 8A/8B
Experimental: H9C2 cells were plated in p-slide 8 well plate (Ibidi GmbH, Germany) at a density of 10000 cells per well in 200 μL of culture medium and allowed to adhere for 24 h before treatment. Hypoxic treatment was achieved by exposing cells in glucose-free DMEM under conditions of 94.9% N2/5% CO2/0.1% O2 for 12 hr at a hypoxystation (whitley H35 hypoxystation, Don Whitley Scientific Ltd., England), serial concentrations of RNA molecules obtained in Example 2 were then added to the cells and reoxygenation by incubating in the normoxic condition (95% air/5% CO2) at 37° C. for 6 hr. After hypoxia/reoxygenation, cells were stained with Rhodamine Phalloidin and DAPI following the manufacturer's instruction. Images were acquired on a Leica TCS SP8 Confocal Microscopy with a 20× objective.

[5] = tested on: H9C2 cell line; assay: MTT cell viability assay, H9C2 cells exposed to hypoxia injury; conditions: 300 nM RNA, H9C2, hypoxia 3 hr, vs hypoxia group, FIG. 3A

Row | Molecule | cell viability (growth and proliferation of cardiomyocytes) under hypoxia [5] | cell viability (growth and proliferation of cardiomyocytes) under hypoxia/reoxygenation ([2]; H9C2, H/R) | cardioprotective effect (cell viability), concentration series ([2]; H9C2, H/R) | also measured
1 | HC50: double-stranded RNA, sense SEQ ID NO: 2 and antisense SEQ ID NO: 234, 19 base pairs (sense GCGGAUGUAGCCAAGUGGA; antisense UCCACUUGGCUACAUCCGC; cholesterol-conjugated double-stranded RNA, conjugate position not given here) | – | – | – | mitochondrial viability, protective effect against H/R injury, concentration series [1]: dose-dependent protective effect against hypoxia/reoxygenation (H/R) injury; cell viability (growth and proliferation of cardiomyocytes), screen of synthesized RNA molecules ([2]; 300 nM, H9C2, H/R, FIG. 5A/5B): effective in promoting the growth and proliferation of cardiomyocytes; cell viability, protective effect against H/R injury, concentration series ([2]; 900, 300, 30, 3, 0.3 nM, H9C2, FIG. 6A/6B): dose-dependent protective effect against hypoxia/reoxygenation (H/R) injury; cell viability (growth and proliferation of cardiomyocytes), transfected with DharmaFECT4 [3]: promoted the growth and proliferation of cardiomyocytes against hypoxia/reoxygenation (H/R) injury in a dose-dependent manner; protective effect on cytoskeleton destruction [4]: significantly relieve cytoskeleton destruction of H9C2 cells caused by hypoxia/reoxygenation (H/R) injury in a dose-dependent manner
2 | B1 | capable to promote the growth and proliferation of cardiomyocytes | – | – | –
3 | B2 | capable to promote the growth and proliferation of cardiomyocytes | capable to promote the growth and proliferation of cardiomyocytes | significant cardioprotective effects in a dose-dependent manner | –
4 | B3 | – | capable to promote the growth and proliferation of cardiomyocytes | significant cardioprotective effects in a dose-dependent manner | –
